Measurements from patent publication US20080161234A1, “Composition Comprising Lactic Acid and Lactoferrin” (priority 2004, published 2008).

What was measured:
Format in all cases: cell-based
E. coli 06 = assay: Microbicidal microplate-droplet assay, E. coli; set-up: key to E. coli killing, growth grade in droplet assay: +++ means that the number of colony forming units (CFU) contained within 5 ul of a droplet formed a smooth layer of bacteria; ++ means that a “ruffled” area is seen; 0 means that no CFU were found in triplicate samples of 5 ul (>99.95 killed of the inoculum)
Protocol: (§1) The bacterial strains S. aureus 1800 (CCUG 1800), E. coli 06, and the yeast C. albicans (ATCC 64549) have been used in the microplate assay. All microorganisms were cultured in brain heart infusion medium (BHI) on a shaker over night at 37° C. A volume of the culture was transferred to a new tube with BHI and incubated for two more h on the shaker. The bacteria were harvested in the log phase, washed once and thereafter suspended in the broth used for the microplate assay. The suspension was adjusted spectrophotometrically and diluted to a concentration of approximately 4×10^6 cells per ml at 650 nm. Washed cells were suspended in 0.2% BP (pH 7.0) or BHI medium diluted 1/10 (0.34%, pH 6.7-6.9) (Difco, USA). The concentration of bacterial or fungal cells was spectrophotometrically adjusted. LF or peptide, serially diluted in BHIdil or BP by twofold steps (unless otherwise stated), were added in triplicate to the wells of a microtiterplate (200 ul per well). The bacterial or yeast cell solutions were added in 10 ul volumes to give a final concentration of approximately 2×10^5 cells per ml. The concentration of the stock solution was always checked by viable counts. The microplate was incubated at 37° C. in a humid chamber for 2 h unless otherwise stated. Five ul were taken from each well and added as a drop onto a blood agar plate and incubated over night at 37° C. In some experiments more thorough viable counts were performed and the killing was expressed as remaining colony forming units in relation to the inoculum. The lower limit for detection of microorganisms was 200 CFU/ml. The antimicrobial activity of human LF was analysed by the microbicidal assay described above. Different microbes such as C. albicans, E. coli and S. aureus were analysed with respect to their survival in lactate (not containing the inert gel base, which makes the gel unsuitable for the microbicidal assay) containing LF.

[1] = test system: S. aureus 1800 (CCUG 1800); assay: Microbicidal microplate-droplet assay, S. aureus; set-up: key to S. aureus killing, growth grade in droplet assay: +++ = the number of colony forming units contained within 5 ul of a droplet formed a smooth layer of bacteria.; (+++): (parenthesis = a tendency towards a ruffled area compared with the control).; 0 = no bacteria in triplicate samples of 5 ul (>99.95 killed of the inoculum)
Protocol: as §1

L. gasseri = assay: Survival of L. gasseri in lactate with LF; details: LF 2 mg/ml, lactate 1%, 0.34% BHI, CO2, 3 h
Protocol: L. gasseri and L. jensenii were cultured on chocolate-agar plates for 24 h in 5% CO2/95% air. They were thereafter harvested and added to BHI (0.34%). After washing the bacterial solutions were adjusted spectrophotometrically and diluted to 8×10^6 bacteria/ml.
Washed cells were suspended in 0.2% BP (pH 7.0) or BHI medium diluted 1/10 (0.34%, pH 6.7-6.9) (Difco, USA). The concentration of bacterial or fungal cells was spectrophotometrically adjusted. LF or peptide, serially diluted in BHIdil or BP by twofold steps (unless otherwise stated), were added in triplicate to the wells of a microtiterplate (200 ul per well). The bacterial or yeast cell solutions were added in 10 ul volumes to give a final concentration of approximately 2×10^5 cells per ml. The concentration of the stock solution was always checked by viable counts. The microplate was incubated at 37° C. in a humid chamber for 2 h unless otherwise stated. Five ul were taken from each well and added as a drop onto a blood agar plate and incubated over night at 37° C. In some experiments more thorough viable counts were performed and the killing was expressed as remaining colony forming units in relation to the inoculum. The lower limit for detection of microorganisms was 200 CFU/ml.
L. gasseri survived better in the assay system than did L. jensenii. Undiluted lactate (5%) affected the survival of Lactobacillus.

G. vaginalis (Gv 14) = assay: Growth inhibition of G. vaginalis by LF, spectrophotometric, 20 h anaerobic; details: LF in various concentrations, no lactate, 0.34% BHI
Protocol: (§2) The bacteria were incubated in 0.34% BHI under anaerobic conditions for 20 hours.
(§3) G. vaginalis and P. bivia were cultured on chocolate-GL-plates for 48 h in anaerobic milieu. The bacteria were harvested and suspended in BHI for further incubation (4 hours at 37° C.). The bacteria were washed twice in Bactopeptone (BP, 0.2%). The concentration was adjusted spectrophotometrically and diluted to 1×10^7 bacteria per ml.
(§4) The procedure for the microbicidal assay with regard to G. vaginalis and P. bivia was as described above except that the microplate was incubated under anaerobic conditions (2 h). Thereafter droplets of the solutions were analyzed for viable bacteria on blood agar plates after 48 h of anaerobic incubation at 37° C.
(§5) The microbicidal assay was modified in order to obtain survival conditions for G. vaginalis and P. bivia. Instead of 0.2% BP 0.34% BHI was used. The bacterial strains were analyzed with only LF added in various concentrations to the wells (no lactate present). The plate was incubated for 20 hours.

[2] = test system: P. bivia strains (Pb 57, Pb 62); assay: Growth inhibition of P. bivia by LF, spectrophotometric, 20 h anaerobic; details: LF in various concentrations, no lactate, 0.34% BHI
Protocol: as §2, §3, §4, §5

[3] = HLF 500 ug/ml, lactate 0.2%, 2 h incubation
[4] = HLF 500 ug/ml, lactate 0.2%, 5 h incubation
[5] = HLF 500 ug/ml, lactate 1%, 2 h incubation
[6] = HLF 500 ug/ml, lactate 1%, 5 h incubation
[7] = HLF 500 ug/ml, lactate 5%, 2 h incubation
[8] = HLF 500 ug/ml, lactate 5%, 5 h incubation
[9] = HLF 500 ug/ml, no lactal, 2 h incubation
[10] = HLF 500 ug/ml, no lactal, 5 h incubation

B1: LF: LF from human milk purchased from Sigma; single chain iron-binding glycoprotein (protein, UniProt P02788 20-710, looked up)
Lactotransferrin: GRRRSVQWCAVSQPEATKCFQWQRNMRKVRGPPVSCIKRDSPIQCIQAIAENRADAVTLDGGFIYEAGLAPYKLRPVAAEVYGTERQPRTHYYAVAVVKKGGSFQLNELQGLKSCHTGLRRTAGWNVPIGTLRPFLNWTGPPEPIEAAVARFFSASCVPGADKGQFPNLCRLCAGTGENKCAFSSQEPYFSYSGAFKCLRDGAGDVAFIRESTVFEDLSDEAERDEYELLCPDNTRKPVDKFKDCHLARVPSHAVVARSVNGKEDAIWNLLRQAQEKFGKDKSPKFQLFGSPSGQKDLLFKDSAIGFSRVPPRIDSGLYLGSGYFTAIQNLRKSEEEVAARRARVVWCAVGEQELRKCNQWSGLSEGSVTCSSASTTEDCIALVLKGEADAMSLDGGYVYTAGKCGLVPVLAENYKSQQSSDPDPNCVDRPVEGYLAVAVVRRSDTSLTWNSVKGKKSCHTAVDRTAGWNIPMGLLFNQTGSCKFDEYFSQSCAPGSDPRSNLCALCIGDEQGENKCVPNSNERYYGYTGAFRCLAENAGDVAFVKDVTVLQNTDGNNNEAWAKDLKLADFALLCLDGKRKPVTEARSCHLAMAPNHAVVSRMDKVERLKQVLLHQQAKFGRNGSDCPDKFCLFQSETKNLLFNDNTECLARLHGKTTYEKYLGPQYVAGITNLKKCSTSPLLEACEFLRK
**Q.** With B1 as the molecule, how does the “E. coli killing, growth grade in droplet assay” value (“E. coli killing, growth grade” for short) (E. coli 06; [3]) read?
**A.** Its value is “++”.

**Q.** What about the “E. coli killing, percentage of bacteria remaining in relation to the inoculum” value (E. coli 06; [4]) of the same molecule?
**A.** The value was 4%.

**Q.** What about the “E. coli killing, growth grade” value (E. coli 06; [5]) of the same molecule?
**A.** Its value is “++”.

**Q.** And the “E. coli killing, percentage of bacteria remaining in relation to the inoculum” value (E. coli 06; [6])?
**A.** Its value is 5%.

**Q.** And the “E. coli killing, percentage of bacteria remaining in relation to the inoculum” value (E. coli 06; [7])?
**A.** The value was 0 (0 means that no CFU were found in triplicate samples of 5 ul (>99.95 killed of the inoculum)).

**Q.** And the “E. coli killing, percentage of bacteria remaining in relation to the inoculum” value (E. coli 06; [8])?
**A.** Its value is 0 (0 means that no CFU were found in triplicate samples of 5 ul (>99.95 killed of the inoculum)).

**Q.** And the “E. coli killing, growth grade” value (E. coli 06; [9])?
**A.** Its value is “+++”.

**Q.** What about the “E. coli killing, growth grade” value (E. coli 06; [10]) of the same molecule?
**A.** The value was “+++”.

**Q.** What about the “E. coli killing, percentage of bacteria remaining in relation to the inoculum” value (E. coli 06; HLF 2000 ug/ml, lactate 0.2%, 5 h incubation) of the same molecule?
**A.** Its value is 5%.

**Q.** And the “E. coli killing, percentage of bacteria remaining in relation to the inoculum” value (E. coli 06; HLF 2000 ug/ml, lactate 1%, 5 h incubation)?
**A.** The value was 9%.

**Q.** What about the “E. coli killing, percentage of bacteria remaining in relation to the inoculum” value (E. coli 06; HLF 2000 ug/ml, lactate 5%, 2 h incubation) of the same molecule?
**A.** Its value is 0 (0 means that no CFU were found in triplicate samples of 5 ul (>99.95 killed of the inoculum)).

**Q.** And the “E. coli killing, percentage of bacteria remaining in relation to the inoculum” value (E. coli 06; HLF 2000 ug/ml, lactate 5%, 5 h incubation)?
**A.** Its value is 0 (0 means that no CFU were found in triplicate samples of 5 ul (>99.95 killed of the inoculum)).

**Q.** What about the “E. coli killing, growth grade” value (E. coli 06; HLF 2000 ug/ml, no lactal, 2 h incubation) of the same molecule?
**A.** Its value is “++”.

**Q.** And the “E. coli killing, percentage of bacteria remaining in relation to the inoculum” value (E. coli 06; HLF 2000 ug/ml, no lactal, 5 h incubation)?
**A.** Its value is 3%.

**Q.** And the “E. coli killing, growth grade” value (E. coli 06; HLF 5000 ug/ml, lactate 0.2%, 2 h incubation)?
**A.** Its value is “++”.

**Q.** And the “E. coli killing, percentage of bacteria remaining in relation to the inoculum” value (E. coli 06; HLF 5000 ug/ml, lactate 0.2%, 5 h incubation)?
**A.** Its value is 0.4%.

**Q.** And the “E. coli killing, percentage of bacteria remaining in relation to the inoculum” value (E. coli 06; HLF 5000 ug/ml, lactate 1%, 5 h incubation)?
**A.** Its value is 16%.

**Q.** What about the “E. coli killing, percentage of bacteria remaining in relation to the inoculum” value (E. coli 06; HLF 5000 ug/ml, lactate 5%, 2 h incubation) of the same molecule?
**A.** The value was 0 (0 means that no CFU were found in triplicate samples of 5 ul (>99.95 killed of the inoculum)).

**Q.** And the “E. coli killing, percentage of bacteria remaining in relation to the inoculum” value (E. coli 06; HLF 5000 ug/ml, lactate 5%, 5 h incubation)?
**A.** Its value is 0 (0 means that no CFU were found in triplicate samples of 5 ul (>99.95 killed of the inoculum)).

**Q.** What about the “E. coli killing, growth grade” value (E. coli 06; HLF 5000 ug/ml, no lactal, 2 h incubation) of the same molecule?
**A.** The value was “++”.

**Q.** What about the “E. coli killing, percentage of bacteria remaining in relation to the inoculum” value (E. coli 06; HLF 5000 ug/ml, no lactal, 5 h incubation) of the same molecule?
**A.** Its value is 2%.

**Q.** What about the “S. aureus killing, percentage of bacteria remaining in relation to the inoculum” value [1, 3] of the same molecule?
**A.** The value was 0 (0 = no bacteria in triplicate samples of 5 ul (>99.95 killed of the inoculum).).

**Q.** What about the “S. aureus killing, percentage of bacteria remaining in relation to the inoculum” value [1, 4] of the same molecule?
**A.** The value was 0 (0 = no bacteria in triplicate samples of 5 ul (>99.95 killed of the inoculum).).

**Q.** And the “S. aureus killing, percentage of bacteria remaining in relation to the inoculum” value [1, 5]?
**A.** The value was 0 (0 = no bacteria in triplicate samples of 5 ul (>99.95 killed of the inoculum).).

**Q.** What about the “S. aureus killing, percentage of bacteria remaining in relation to the inoculum” value [1, 6] of the same molecule?
**A.** Its value is 0 (0 = no bacteria in triplicate samples of 5 ul (>99.95 killed of the inoculum).).

**Q.** What about the “S. aureus killing, percentage of bacteria remaining in relation to the inoculum” value [1, 7] of the same molecule?
**A.** Its value is 0 (0 = no bacteria in triplicate samples of 5 ul (>99.95 killed of the inoculum).).

**Q.** And the “S. aureus killing, percentage of bacteria remaining in relation to the inoculum” value [1, 8]?
**A.** Its value is 0 (0 = no bacteria in triplicate samples of 5 ul (>99.95 killed of the inoculum).).

**Q.** And the “S. aureus killing, growth grade in droplet assay” value [1, 9]?
**A.** The value was “(+++)”.

**Q.** What about the “S. aureus killing, percentage of bacteria remaining in relation to the inoculum” value [1, 10] of the same molecule?
**A.** The value was 0.3%.

**Q.** And the “microbicidal activity against S. aureus, LF compared with rHLF” value ([1]; without lactate, 0.25 and 0.125 mg/ml, 2 h of incubation)?
**A.** The value was “somewhat more active”.

**Q.** What about the “survival of L. gasseri” value (L. gasseri) of the same molecule?
**A.** The value was 18%.

**Q.** What about the “growth inhibition of G. vaginalis” value (G. vaginalis (Gv 14)) of the same molecule?
**A.** The value was “Growth inhibition”.

**Q.** What about the “growth inhibition of P. bivia” value [2] of the same molecule?
**A.** The value was “Growth inhibition”.
